Laboratory results published in patent US20180044374A1.
Values joined by “and” are separate entries in the source; they are usually repeats but may differ in a detail not shown here. Equal values may be shown once.

What was measured:
[1] = biological target: human polyclonal IgG (Gammanorm) (human); experiment: dynamic binding capacity; ligand 20 mg/ml, before 1 M NaOH
[2] = biological target: human polyclonal IgG (Gammanorm) (human); experiment: dynamic binding capacity; matrix I1, ligand 11.2 mg/ml
[3] = biological target: human polyclonal IgG (Gammanorm) (human); experiment: dynamic binding capacity; matrix A43, ligand 10.51 mg/ml
[4] = biological target: human polyclonal IgG (Gammanorm) (human); experiment: dynamic binding capacity; matrix A62a, ligand 6.4 mg/ml
[5] = biological target: human polyclonal IgG (Gammanorm) (human); experiment: dynamic binding capacity; matrix A39, ligand 6.96 mg/ml
[6] = biological target: human polyclonal IgG (Gammanorm) (human); experiment: dynamic binding capacity; matrix A62b, ligand […]; details: ligand content 5.2 mg/ml
[7] = biological target: human polyclonal IgG (Gammanorm) (human); experiment: dynamic binding capacity; matrix A42, ligand 6.72 mg/ml
[8] = biological target: human polyclonal IgG (Gammanorm) (human); experiment: dynamic binding capacity; matrix A39, ligand 10.5 mg/ml
[9] = biological target: human polyclonal IgG (Gammanorm) (human); experiment: dynamic binding capacity; matrix A18, ligand 8.2 mg/ml
[10] = biological target: human polyclonal IgG (Gammanorm) (human); experiment: dynamic binding capacity; matrix A65a, ligand 6.1 mg/ml
[11] = biological target: human polyclonal IgG (Gammanorm) (human); experiment: dynamic binding capacity; matrix A65a, ligand 13.1 mg/ml
[12] = biological target: human polyclonal IgG (Gammanorm) (human); experiment: dynamic binding capacity; ligand 13 mg/ml, before 1 M NaOH
[13] = biological target: human polyclonal IgG (Gammanorm) (human); experiment: dynamic binding capacity; matrix A65a, ligand 13.6 mg/ml
[14] = biological target: human polyclonal IgG (Gammanorm) (human); experiment: dynamic binding capacity; ligand 16 mg/ml, before 1 M NaOH
[15] = biological target: human polyclonal IgG (Gammanorm) (human); experiment: dynamic binding capacity; matrix A40, ligand 6.1 mg/ml
[16] = biological target: human polyclonal IgG (Gammanorm) (human); experiment: dynamic binding capacity; matrix B5, ligand 9.6 mg/ml
[17] = biological target: human polyclonal IgG (Gammanorm) (human); experiment: dynamic binding capacity; matrix A39, ligand 10.48 mg/ml
[18] = biological target: human polyclonal IgG (Gammanorm) (human); experiment: dynamic binding capacity; matrix A32, ligand […]
[19] = biological target: human polyclonal IgG (Gammanorm) (human); experiment: dynamic binding capacity; matrix A65a, ligand 6.6 mg/ml
[20] = biological target: human polyclonal IgG (Gammanorm) (human); experiment: dynamic binding capacity; matrix A38, ligand 11.3 mg/ml
[21] = biological target: human polyclonal IgG (Gammanorm) (human); experiment: dynamic binding capacity; matrix A27, ligand 7.5 mg/ml
[22] = biological target: human polyclonal IgG (Gammanorm) (human); experiment: dynamic binding capacity; matrix A40, ligand 13.15 mg/ml
[23] = biological target: human polyclonal IgG (Gammanorm) (human); experiment: dynamic binding capacity; matrix A32, ligand 13.3 mg/ml
[24] = biological target: human polyclonal IgG (Gammanorm) (human); experiment: dynamic binding capacity; matrix A33, ligand 7.33 mg/ml
[25] = biological target: human polyclonal IgG (Gammanorm) (human); experiment: dynamic binding capacity; matrix C2, ligand […]
[26] = biological target: human polyclonal IgG (Gammanorm) (human); experiment: dynamic binding capacity; matrix A40, ligand 11.03 mg/ml
[27] = biological target: human polyclonal IgG (Gammanorm) (human); experiment: dynamic binding capacity; matrix I1, ligand 6.1 mg/ml
[28] = biological target: human polyclonal IgG (Gammanorm) (human); experiment: dynamic binding capacity; matrix A62a, ligand 14.8 mg/ml
[29] = biological target: human polyclonal IgG (Gammanorm) (human); experiment: dynamic binding capacity; matrix A41, ligand 8.83 mg/ml
[30] = biological target: human polyclonal IgG (Gammanorm) (human); experiment: dynamic binding capacity; ligand 12 mg/ml, before 1 M NaOH
[31] = biological target: human polyclonal IgG (Gammanorm) (human); experiment: dynamic binding capacity; matrix A20, ligand […]
[32] = biological target: human polyclonal IgG (Gammanorm) (human); experiment: dynamic binding capacity; matrix A41, ligand 13.0 mg/ml
[33] = biological target: human polyclonal IgG (Gammanorm) (human); experiment: dynamic binding capacity; matrix A62a, ligand 9.7 mg/ml
[34] = biological target: human polyclonal IgG (Gammanorm) (human); experiment: dynamic binding capacity; matrix C1, ligand […]
[35] = biological target: human polyclonal IgG (Gammanorm) (human); experiment: dynamic binding capacity; matrix C4, ligand 10.1 mg/ml
[36] = biological target: human polyclonal IgG (Gammanorm) (human); experiment: dynamic binding capacity; matrix A65b, ligand 8.8 mg/ml
[37] = biological target: human polyclonal IgG (Gammanorm) (human); experiment: dynamic binding capacity; matrix A38, ligand 11.34 mg/ml
[38] = biological target: human polyclonal IgG (Gammanorm) (human); experiment: dynamic binding capacity; matrix A33, ligand 9.4 mg/ml

Question: What does the source list for “Zvar(Q9A, N11E, Q40V, A42K, N43A, L44I)4 (designed binder)”?
Answer: Qb10%, 6 min, before incubation [1]: 73 mg/mL; Qb10% 2.4 min [2]: 57 mg/mL; Qb10% 6 min [2]: 68 mg/mL; Qb10% 2.4 min [3]: 31.8 mg/mL; Qb10% 6 min [3]: 58 mg/mL; Qb10% 2.4 min [4]: 43 mg/mL; Qb10% 6 min [4]: 45 mg/mL; Qb10% 2.4 min [5]: 41.9 mg/mL; Qb10% 6 min [5]: 54.7 mg/mL; Qb10% 2.4 min [6]: 40 mg/mL; Qb10% 2.4 min [7]: 33.6 mg/mL; Qb10% 6 min [7]: 50 mg/mL; Qb10% 2.4 min [8]: 44 mg/mL; Qb10% 6 min [8]: 65 mg/mL; Qb10% 2.4 min [9]: 52 mg/mL; Qb10% 6 min [9]: 59 mg/mL; Qb10% 2.4 min [10]: 40 mg/mL; Qb10% 6 min [10]: 44 mg/mL; Qb10% 2.4 min [11]: 56 mg/mL; Qb10% 6 min [11]: 64 mg/mL; Qb10%, 6 min, before incubation [12]: 79 mg/mL; Qb10% 2.4 min [13]: 52 mg/mL; Qb10% 6 min [13]: 61 mg/mL; Qb10%, 6 min, before incubation [14]: 73 mg/mL; Qb10% 2.4 min [15]: 49 mg/mL; Qb10% 6 min [15]: 59 mg/mL; Qb10% 2.4 min [16]: 45 mg/mL; Qb10% 6 min [16]: 47 mg/mL; Qb10% 2.4 min [17]: 44.4 mg/mL; Qb10% 6 min [17]: 64.8 mg/mL; Qb10% 2.4 min [18]: 40 mg/mL; Qb10% 6 min [18]: 57 mg/mL; Qb10% 2.4 min [19]: 42 mg/mL; Qb10% 6 min [19]: 47 mg/mL; Qb10% 2.4 min [20]: 48 mg/mL; Qb10% 6 min [20]: 73 mg/mL; Qb10% 2.4 min [21]: 29.2 mg/mL; Qb10% 6 min [21]: 48.7 mg/mL; Qb10% 2.4 min [22]: 56.9 mg/mL; Qb10% 6 min [22]: 71.1 mg/mL; Qb10% 2.4 min [23]: 37 mg/mL; Qb10% 6 min [23]: 66 mg/mL; Qb10% 2.4 min [24]: 48.7 mg/mL; Qb10% 6 min [24]: 55.8 mg/mL; Qb10% 2.4 min [25]: 39 mg/mL; Qb10% 6 min [25]: 46 mg/mL; Qb10% 2.4 min [26]: 55 mg/mL; Qb10% 6 min [26]: 73.8 mg/mL; Qb10% 2.4 min [27]: 45 mg/mL; Qb10% 6 min [27]: 51 mg/mL; Qb10% 2.4 min [28]: 55 mg/mL; Qb10% 6 min [28]: 62 mg/mL; Qb10% 2.4 min [29]: 38.5 mg/mL and 37.8 mg/mL and 35.1 mg/mL; Qb10% 6 min [29]: 56.8 mg/mL and 58.6 mg/mL and 57.2 mg/mL; Qb10%, 6 min, before incubation [30]: 78 mg/mL; Qb10% 2.4 min [31]: 49 mg/mL; Qb10% 6 min [31]: 67 mg/mL; Qb10% 2.4 min [32]: 35 mg/mL; Qb10% 6 min [32]: 62.2 mg/mL; Qb10% 2.4 min [33]: 48 mg/mL; Qb10% 6 min [33]: 60 mg/mL; Qb10% 2.4 min [34]: 38 mg/mL; Qb10% 6 min [34]: 47 mg/mL; Qb10% 2.4 min [35]: 55 mg/mL; Qb10% 6 min [35]: 63 mg/mL; Qb10% 2.4 min [36]: 49 mg/mL; Qb10% 6 min [36]: 56 mg/mL; Qb10% 2.4 min [37]: 48.1 mg/mL; Qb10% 6 min [37]: 72.8 mg/mL; Qb10% 2.4 min [38]: 51 mg/mL; Qb10% 6 min [38]: 58 mg/mL
